Experimental data from patent US20230302116A1.

Key:
[1] = target: nAb2 (Active Motif 91361), human anti-spike neutralizing antibody; assay: repeat Octet BLI, target on AHC sensor, spike as analyte
[2] = target: nAb1 (Active Motif 91349), human anti-spike neutralizing antibody; assay: as above
[3] = target: nAb3 (Absolute Antibody Ab01680-10.0), human anti-spike neutralizing antibody; assay: as above
[4] = target: nAb2 (Active Motif 91361), human anti-spike neutralizing antibody; assay: Octet BLI, target on AHC sensor, spike as analyte
[5] = target: nAb1 (Active Motif 91349), human anti-spike neutralizing antibody; assay: Octet BLI, target on AHC sensor, spike as analyte
[6] = target: nAb3 (Absolute Antibody Ab01680-10.0), human anti-spike neutralizing antibody; assay: Octet BLI, target on AHC sensor, spike as analyte

“SPN-C52H8 (SARS-CoV 2 Spike protein with His Tag, Acro Biosystems) (from UniProt P0DTC2 14-1213)” was tested, and the kon [1] was 54300 M⁻¹ s⁻¹, the kon [2] was 18400 M⁻¹ s⁻¹ and the kon [3] was 11300 M⁻¹ s⁻¹. For the same substance, the kon [4] was 115000 M⁻¹ s⁻¹, the kon [5] was 75400 M⁻¹ s⁻¹ and the kon [6] was 34300 M⁻¹ s⁻¹.
